From PMC7587174, “ACE Inhibitory Activity and Molecular Docking of Gac Seed Protein Hydrolysate Purified by HILIC and RP-HPLC” (Molecules, 2020)
Like-named read-outs stand apart in the source and are kept apart here. Residues, ends and D or L forms follow the SMILES beside them. No end group written: not given here.

Key:
[1] = biological target: angiotensin I-converting enzyme (ACE) (Homo sapiens, UniProt P12821); assay: In vitro ACE inhibitory assay (HHL substrate, RP-HPLC detection); assay type: biochemical; settings: synthetic peptides, purity >95%; HHL substrate 2.5 mM (30 µL), ACE 0.05 mU/µL (20 µL), pre-incubation 37 °C 5 min, incubation 37 °C 30 min; HPLC-UV 228 nm; non-linear regression, nine concentrations, repeated three times; read-out: IC50 of synthetic peptides against ACE
Experimental: The method to determine the ACE inhibitory activity of gac seeds peptides hydrolysate was adapted according to a previous report with slight modification. Briefly, the sample dissolved in ddH2O (10 µL) was added to 2.5 mM hippuryl-L-histidyl-L-leucine (30 µL). Borate buffer (10 µL) was used as blank solution. In total, 50 µM Captopril (10 µL) was used as positive control. The samples, blank, and positive control were incubated at 37 °C for 5 min. Then, 0.05 mU/µL of ACE (20 µL) was added into each solution. The reaction mixture was incubated at 37 °C for 30 min and mixed in a shaker incubator at 200 rpm for 30 min. The reaction was stopped by adding 1 N HCl (60 µL). After, 0.25 mg/mL ferulic acid (10 µL) was added as an internal standard. Samples were centrifuged (Hitachi Koki Co., Ltd., Tokyo, Japan) at 15,000 rpm for 2 min. The samples were separated by RP-HPLC using a C18 column (4.6 mm × 250 mm, particle size 5 µm) (Macherey-Nagel, Duren, Germany). Samples were selected using an isocratic gradient of 95% solvent A and […] solvent B at a flow rate of 1 mL/min. Solvent A was prepared by 5% acetonitrile + 0.1% trifluoroacetic acid and solvent B was prepared by 95% acetonitrile + 0.1% trifluoroacetic acid. Absorbance was measured using a UV detector at 228 nm. ACE inhibitory activity (%) was examined in triplicate and calculated according to the following equation:ACE-inhibitory activity (%) = [1 − (ΔAinhibition)/(ΔAcontrol)] × 100%, where ΔAinhibition and ΔAcontrol are the peak areas in the sample with or without inhibitor.
The definition of IC50 is the peptide concentration required to inhibit 50% of angiotensin-converting enzyme. The IC50 was calculated using non-linear regression of the ACE inhibitory activity (%) from nine different concentrations. This assay was repeated three times for each experiment.

ACE [2] = biological target: T1, ACE (Homo sapiens, UniProt P12821); assay: Kinetics of ACE inhibition (Lineweaver-Burk plot); assay type: biochemical; settings: with increasing ALVY concentration
Experimental: Kinetics of ACE inhibition was determined by a previous method with some modifications. The hydrolysis rate of HHL by ACE over a range of HHL concentrations of 0.005, 0.1, 0.5, 1, and 2 mM was measured while varying the concentrations of ALVY. The modes of ACE inhibition were determined from Lineweaver-Burk plots while inhibition parameters (Vmax and Km) were calculated, respectively, as the Y- and X-axis intercepts of the primary plot.

ACE [3] = biological target: T1, ACE; parameters: method as in 6 sources, ref 38 = [38]; PMID 31264418; doi:10.1021/acs.jafc.9b01922; 38. Shih Y.H. Chen F.A. Wang L.F. Hsu J.L. Discovery and study of novel antihypertensive peptides derived from cassia obtusifolia seeds J. Agric. Food Chem. 2019 67 7810 7820 10.1021/acs.jafc.9b01922 ||| ref 39 = [39]; PMID 26948626; doi:10.1016/j.foodchem.2016.02.097; 39. Gangopadhyay N. Wynne K. O’Connor P. Gallagher E. Brunton N.P. Rai D.K. Hayes M. In silico and in vitro analyses of the angiotensin-I converting enzyme inhibitory activity of hydrolysates generate ||| ref 40 = [40]; PMID 26344130; doi:10.1016/j.jprot.2015.08.018; 40. Priyanto A.D. Doerksen R.J. Chang C.-I. Sung W.-C. Widjanarko S.B. Kusnadi J. Lin Y.-C. Wang T.-C. Hsu J.-L. Screening, discovery, and characterization of angiotensin-I converting enzyme inhibitor ||| ref 41 = [41]; PMID 29112398; doi:10.1021/acs.jafc.7b04522; 41. Orio L.P. Boschin G. Recca T. Morelli C.F. Ragona L. Francescato P. Arnoldi A. Speranza G. New ACE-inhibitory peptides from hemp seed ( Cannabis sativa L.) proteins J. Agric. Food Chem. 2017 65 10 ||| ref 42 = [42]; PMID 21381782; doi:10.1021/jf104998s; 42. Yang R. Zou Y. Yu N. Gu Z. Accumulation and identification of angiotensin-converting enzyme inhibitory peptides from wheat germ J. Agric. Food Chem. 2011 59 3598 3605 10.1021/jf104998s 21381782 ||| ...; settings: cited from earlier work
[4] = biological target: Angiotensin I-converting enzyme (UniProt P12821)
Angiotensin I-converting enzyme, sequence (P12821 30-1306): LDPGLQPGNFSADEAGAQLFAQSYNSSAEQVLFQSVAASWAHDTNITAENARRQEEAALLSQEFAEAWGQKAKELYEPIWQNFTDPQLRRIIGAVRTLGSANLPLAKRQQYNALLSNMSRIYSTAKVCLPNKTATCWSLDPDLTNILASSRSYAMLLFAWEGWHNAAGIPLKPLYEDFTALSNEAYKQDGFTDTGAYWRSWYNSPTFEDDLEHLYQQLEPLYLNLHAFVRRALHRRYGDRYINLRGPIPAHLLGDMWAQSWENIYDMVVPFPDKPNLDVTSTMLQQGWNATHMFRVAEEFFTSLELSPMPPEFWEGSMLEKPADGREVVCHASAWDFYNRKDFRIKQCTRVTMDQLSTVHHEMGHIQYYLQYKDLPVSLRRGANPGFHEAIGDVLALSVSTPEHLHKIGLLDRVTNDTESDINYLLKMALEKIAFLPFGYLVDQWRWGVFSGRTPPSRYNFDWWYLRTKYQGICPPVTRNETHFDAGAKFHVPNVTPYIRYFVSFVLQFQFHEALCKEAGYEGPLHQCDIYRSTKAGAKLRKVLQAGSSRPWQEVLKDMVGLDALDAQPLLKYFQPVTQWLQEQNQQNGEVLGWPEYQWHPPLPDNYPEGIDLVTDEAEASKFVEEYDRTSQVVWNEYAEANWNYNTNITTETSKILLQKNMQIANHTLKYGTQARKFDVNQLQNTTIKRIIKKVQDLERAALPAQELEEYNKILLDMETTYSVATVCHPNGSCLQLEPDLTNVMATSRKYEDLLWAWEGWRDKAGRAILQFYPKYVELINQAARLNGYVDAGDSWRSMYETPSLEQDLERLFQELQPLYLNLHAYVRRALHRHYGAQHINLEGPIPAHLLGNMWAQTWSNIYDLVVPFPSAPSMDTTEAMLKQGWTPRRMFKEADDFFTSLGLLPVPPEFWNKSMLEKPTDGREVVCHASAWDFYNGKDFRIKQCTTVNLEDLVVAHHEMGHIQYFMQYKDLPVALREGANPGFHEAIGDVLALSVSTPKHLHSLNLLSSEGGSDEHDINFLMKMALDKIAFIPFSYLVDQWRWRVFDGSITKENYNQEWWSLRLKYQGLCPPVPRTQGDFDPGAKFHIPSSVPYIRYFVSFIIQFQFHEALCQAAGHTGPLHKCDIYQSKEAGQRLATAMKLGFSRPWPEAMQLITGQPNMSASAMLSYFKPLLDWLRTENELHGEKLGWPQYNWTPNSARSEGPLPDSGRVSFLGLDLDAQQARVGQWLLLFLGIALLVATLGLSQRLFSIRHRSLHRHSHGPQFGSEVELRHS

T1 sequence (P12821 30-1306, species assumed): as the sequence (P12821 30-1306) above
angiotensin I-converting enzyme (ACE), sequence (P12821 30-1306, species assumed): as the sequence (P12821 30-1306) above

IC50 of ACE inhibitory activity (hydrolysis of hippuryl-L-histidyl-L-leucine by ACE, 37 °C, RP-HPLC read-out at 228 nm; synthetic peptide, nine concentrations) [4]	Molecule	IC50 [1]	further results
	CC(C)C[C@H](NC(=O)[C@H](C)N)C(=O)N[C@H](C(=O)N[C@@H](Cc1ccc(O)cc1)C(=O)O)C(C)C [ALVY] (H-ALVY-OH)	7.03 ± 0.09 µM	Effect on Km (ACE [2]): increased with the increasing peptide concentration
	CC(C)C[C@H](NC(=O)[C@@H](N)CC(C)C)C(=O)N[C@H](C(=O)N[C@@H](Cc1ccc(O)cc1)C(=O)O)C(C)C [LLVY] (H-LLVY-OH)	87.8 ± 3.37 µM	
	FHAPWK [peptide from Cassia obtusifolia seeds]		IC50 (ACE [3]; Cassia obtusifolia seeds, read-out: IC50 (Cassia obtusifolia seeds peptide)): 16.8 µM
	LLAPHY [LLAPHY]	15.9 ± 0.52 µM	
	LSTSTDVR-OH [LSTSTDVR]	> 167 µM	
	VSGAGRY [peptide from bitter melon seeds]		IC50 (ACE [3]; bitter melon seeds, read-out: IC50 (bitter melon seeds peptide)): 8.6 µM
> 167 µM	LSTSTDVR		
7.03 µM	ALVY		
87.8 µM	LLVY		
15.9 µM	LLAPHY		
